# Test results taken from article doi:10.1101/2021.01.28.428602 (bioRxiv, 2021).
# Like-named read-outs stand apart in the source and are kept apart here.
# Key:
# [1] = molecular target: T1, α2β3γ2 GABAA receptor on COS7 cells (Rattus norvegicus (gamma-2 rat or mouse …, UniProt P23576;P63079;P18508)); test: immunostaining of cells or tissue
# [2] = molecular target: T2, α3β3γ2 GABAA receptor on COS7 cells (Rattus norvegicus (gamma-2 rat or mouse …, UniProt P20236;P63079;P18508)); test: immunostaining of cells or tissue
# [3] = molecular target: T3, α4β3γ2 GABAA receptor on COS7 cells (Rattus norvegicus (gamma-2 rat or mouse …, UniProt P28471;P63079;P18508)); test: immunostaining of cells or tissue
# [4] = molecular target: T4, α5β3γ2 GABAA receptor on COS7 cells (Rattus norvegicus (gamma-2 rat or mouse …, UniProt P19969;P63079;P18508)); test: immunostaining of cells or tissue
# [5] = molecular target: α1β3 GABAA receptor on COS7 cells (Rattus norvegicus (construct of ref. 7), UniProt P62813;P63079); test: immunostaining of cells or tissue
# [6] = molecular target: α1β3γ2 GABAA receptor on COS7 cells (Rattus norvegicus (gamma-2 rat or …, UniProt P62813;P63079;P18508)); test: immunostaining of cells or tissue
# [7] = molecular target: GABAA receptor β3 subunit alone on COS7 cells (Rattus norvegicus (construct of ref. 7), UniProt P63079); test: immunostaining of cells or tissue
# [8] = molecular target: GABAA receptor γ2 subunit alone on COS7 cells (Rattus norvegicus (rat or mouse …, UniProt P18508)); test: immunostaining of cells or tissue
# [9] = molecular target: rat α1β3γ2 GABAA receptor on HEK293T cells (Rattus norvegicus, UniProt P62813;P63079;P18508); test: flow cytometry on cells
# [10] = molecular target: rat α1β3 GABAA receptor on HEK293T cells (Rattus norvegicus, UniProt P62813;P63079); test: immunostaining of cells or tissue
# [11] = molecular target: β3γ2 GABAA receptor subunits on COS7 cells (Rattus norvegicus (gamma-2 rat or …, UniProt P63079;P18508)); test: immunostaining of cells or tissue
# [12] = molecular target: T1, α2β3γ2 GABAA receptor on COS7 cells; test: immunostaining of cells or tissue; remark: listed apart in the source
# [13] = molecular target: T2, α3β3γ2 GABAA receptor on COS7 cells; test: immunostaining of cells or tissue; remark: listed apart in the source
# [14] = molecular target: T3, α4β3γ2 GABAA receptor on COS7 cells; test: immunostaining of cells or tissue; remark: listed apart in the source
# [15] = molecular target: T4, α5β3γ2 GABAA receptor on COS7 cells; test: immunostaining of cells or tissue; remark: listed apart in the source
# [16] = molecular target: α1β2γ2 GABAA receptor on COS7 cells (Rattus norvegicus (gamma-2 rat or …, UniProt P62813;P63138;P18508)); test: immunostaining of cells or tissue
# T3 sequence (P28471 36-552, chain 1 of 3): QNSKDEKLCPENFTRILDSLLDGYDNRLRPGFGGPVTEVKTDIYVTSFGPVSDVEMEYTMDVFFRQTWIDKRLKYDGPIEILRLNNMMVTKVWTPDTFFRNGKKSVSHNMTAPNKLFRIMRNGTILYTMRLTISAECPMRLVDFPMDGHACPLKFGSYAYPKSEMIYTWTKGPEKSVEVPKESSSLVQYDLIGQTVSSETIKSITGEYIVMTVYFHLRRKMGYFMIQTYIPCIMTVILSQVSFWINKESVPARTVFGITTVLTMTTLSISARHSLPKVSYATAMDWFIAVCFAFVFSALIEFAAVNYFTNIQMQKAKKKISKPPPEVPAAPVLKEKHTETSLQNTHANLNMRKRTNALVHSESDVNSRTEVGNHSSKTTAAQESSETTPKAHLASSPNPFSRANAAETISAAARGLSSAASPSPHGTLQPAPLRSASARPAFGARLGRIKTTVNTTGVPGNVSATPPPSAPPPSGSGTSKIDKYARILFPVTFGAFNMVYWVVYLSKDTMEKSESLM
# T3 sequence (P63079 26-473, chain 2 of 3): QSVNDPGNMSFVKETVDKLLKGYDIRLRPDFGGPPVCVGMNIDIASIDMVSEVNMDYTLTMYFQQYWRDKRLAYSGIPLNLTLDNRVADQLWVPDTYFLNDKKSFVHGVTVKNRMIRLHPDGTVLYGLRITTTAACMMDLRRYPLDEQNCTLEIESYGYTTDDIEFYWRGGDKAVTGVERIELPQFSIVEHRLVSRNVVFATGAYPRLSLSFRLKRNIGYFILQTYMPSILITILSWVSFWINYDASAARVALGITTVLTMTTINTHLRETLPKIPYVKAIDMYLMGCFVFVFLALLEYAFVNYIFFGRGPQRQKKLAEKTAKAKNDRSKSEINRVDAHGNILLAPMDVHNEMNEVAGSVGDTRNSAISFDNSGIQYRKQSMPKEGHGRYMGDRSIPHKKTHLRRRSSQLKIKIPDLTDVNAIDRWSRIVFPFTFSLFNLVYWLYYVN
# T3 sequence (P18508 39-466, chain 3 of 3): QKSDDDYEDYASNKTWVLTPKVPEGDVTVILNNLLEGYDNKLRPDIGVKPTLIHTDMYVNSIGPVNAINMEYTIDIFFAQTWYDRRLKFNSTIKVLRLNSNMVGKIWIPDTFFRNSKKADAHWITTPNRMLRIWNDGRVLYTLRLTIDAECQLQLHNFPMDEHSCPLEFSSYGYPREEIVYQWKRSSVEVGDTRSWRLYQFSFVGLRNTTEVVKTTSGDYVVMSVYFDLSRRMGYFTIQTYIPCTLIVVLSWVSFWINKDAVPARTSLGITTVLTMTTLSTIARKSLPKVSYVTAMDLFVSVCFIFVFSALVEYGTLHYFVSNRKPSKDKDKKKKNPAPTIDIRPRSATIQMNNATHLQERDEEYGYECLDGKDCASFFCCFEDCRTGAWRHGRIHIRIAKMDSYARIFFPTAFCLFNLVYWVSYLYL
# Chain of GABAA receptor γ2 subunit alone on COS7 cells (Rattus norvegicus (P18508 39-466): as the sequence (P18508 39-466, chain 3 of 3) above
# Chain of α1β3 GABAA receptor on COS7 cells (P62813 28-455, chain 1 of 2): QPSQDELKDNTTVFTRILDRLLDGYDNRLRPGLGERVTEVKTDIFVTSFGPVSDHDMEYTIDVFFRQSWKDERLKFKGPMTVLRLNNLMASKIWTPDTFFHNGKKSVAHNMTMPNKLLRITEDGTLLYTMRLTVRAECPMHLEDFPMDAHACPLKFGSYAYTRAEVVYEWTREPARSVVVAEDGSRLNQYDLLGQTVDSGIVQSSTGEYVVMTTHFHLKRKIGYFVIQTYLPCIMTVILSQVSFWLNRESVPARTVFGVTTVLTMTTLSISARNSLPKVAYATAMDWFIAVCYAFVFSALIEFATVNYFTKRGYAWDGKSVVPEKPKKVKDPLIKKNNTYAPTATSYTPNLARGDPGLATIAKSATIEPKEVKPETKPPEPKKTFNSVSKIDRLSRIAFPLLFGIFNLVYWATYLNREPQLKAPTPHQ
# Chain of α1β3 GABAA receptor on COS7 cells (P63079 26-473, chain 2 of 2): as the sequence (P63079 26-473, chain 2 of 3) above
# Chain of α1β3γ2 GABAA receptor on COS7 cells (Rattus norvegicus (P62813 28-455, chain 1 of 3): as the sequence (P62813 28-455, chain 1 of 2) above
# Chain of α1β3γ2 GABAA receptor on COS7 cells (Rattus norvegicus (P63079 26-473, chain 2 of 3): as the sequence (P63079 26-473, chain 2 of 3) above
# Chain of α1β3γ2 GABAA receptor on COS7 cells (Rattus norvegicus (P18508 39-466, chain 3 of 3): as the sequence (P18508 39-466, chain 3 of 3) above
# Chain of GABAA receptor β3 subunit alone on COS7 cells (P63079 26-473): as the sequence (P63079 26-473, chain 2 of 3) above
binding result [1],binding result [2],binding result [3],binding result [4],binding result [5],binding result [6],binding result [7],binding result [8],binding result [9],binding result [10],binding result [11],binding result [12],binding result [13],binding result [14],binding result [15],binding result [16],Binder
no binding,no binding,no binding,no binding,binds,binds,no binding (tested: 5 μg/ml),no binding (tested: 5 μg/ml),binds,binds,–,–,–,–,–,–,"human monoclonal GABAAR antibody #113-115 (antibody, V domains shown) VH: QVQLVQSGAEVKKPGASVKVSCKASGYTFISYDINWVRQATGQGLEWMGGMDPKSGNTGYAQKFQGRVTMTTNTAISTAYMELSSLRSEDTAVYYCVRGEQSYDRTGYSDWFDPWGQGTLVTVSS VL: not shown"
–,–,–,–,no binding (tested: 5 μg/ml),binds,no binding (tested: 5 μg/ml),no binding (tested: 5 μg/ml),binds,–,no binding (tested: 5 μg/ml),no binding (tested: 5 μg/ml),no binding (tested: 5 μg/ml),no binding (tested: 5 μg/ml),no binding (tested: 5 μg/ml),binds,"human monoclonal GABAAR antibody #113-175 (antibody, V domains shown) VH: EVQLLESGEGLVQPGGSLRLSCAASGFTFKTYAMSWVRQAPGKGLEWVSAISGSGASTYYADFVEGRFTISRDNSKNTLYLQMNSLRAEDTAVYYCAKEPPAMVWFGGGYFDYWGQGTLVTVSS VL: EIVLTQSPATLSLSPGERATLSCRASQSVSSYLAWYQQKPGQAPRLLIYDASNRATGIPARFSGSGSGTDFTLTISSLEPEDFAVYYCQQRSNWPPYSFGQGTKLEIK"
